Assay results published in publication PMC4299175.

Biological target: GST-tagged recombinant phosphorylated human ERK2 (human) (UniProt P28482)
UniProt P28482, sequence (P28482 whole entry): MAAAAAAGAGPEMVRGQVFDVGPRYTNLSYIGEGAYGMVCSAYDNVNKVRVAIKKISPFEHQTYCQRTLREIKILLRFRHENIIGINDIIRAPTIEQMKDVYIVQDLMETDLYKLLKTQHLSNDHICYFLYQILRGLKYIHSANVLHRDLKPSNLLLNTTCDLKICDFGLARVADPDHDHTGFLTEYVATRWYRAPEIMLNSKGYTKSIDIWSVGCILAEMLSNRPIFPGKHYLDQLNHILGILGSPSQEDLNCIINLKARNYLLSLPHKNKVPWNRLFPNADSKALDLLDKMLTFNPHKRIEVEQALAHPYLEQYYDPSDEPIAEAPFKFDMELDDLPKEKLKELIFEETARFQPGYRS

dephosphorylation of pERK2 by western blot, dose curve 0.1-10 nM enzyme, 15 min; concentration at which the pERK band is completely absent (0.5 nM for GST-DUSP5): 5 nM
B1: GST-S147P, glutathione-S-transferase-tagged full-length human DUSP5 serine 147 proline mutant (enzyme)
chain: MKVTSLDGRQLRKMLRKEAAARCVVLDCRPYLAFAASNVRGSLNVNLNSVVLRRARGGAVSARYVLPDEAARARLLQEGGGGVAAVVVLDQGSRHWQKLREESAARVVLTSLLACLPAGPRVYFLKGGYETFYSEYPECCVDVKPIPQEKIESERALISQCGKPVVNVSYRPAYDQGGPVEILPFLYLGSAYHASKCEFLANLHITALLNVSRRTSEACATHLHYKWIPVEDSHTADISSHFQEAIDFIDCVREKGGKVLVHCEAGISRSPTICMAYLMKTKQFRLKEAFDYIKQRRSMVSPNFGFMGQLLQYESEILPSTPNPQPPSCQGEAAGSSLIGHLQTLSPDMQGAYCTFPASVLAPVPTHSTVSELSRSPVATATSC
